Laboratory results: patent US5679770A, “Polypeptide, DNA fragment encoding the same, drug composition containing the same and process for producing the same” (Mochida Pharmaceutical Co., Ltd., priority 1991, dated 1997)

T1: Bovine trypsin (Bos taurus, UniProt P00760)
T1 construct: purchased Sigma Chemical Co. Type XIII
T1 sequence (P00760 24-246): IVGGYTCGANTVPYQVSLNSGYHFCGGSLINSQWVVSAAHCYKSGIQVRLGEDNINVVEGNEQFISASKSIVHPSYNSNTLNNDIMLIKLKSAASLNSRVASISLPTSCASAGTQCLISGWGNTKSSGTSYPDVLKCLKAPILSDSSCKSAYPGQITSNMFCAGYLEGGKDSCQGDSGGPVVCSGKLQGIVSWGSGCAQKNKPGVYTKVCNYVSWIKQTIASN


Columns and labels:
Bovine trypsin = target: T1, Bovine trypsin; assay: Bovine trypsin-inhibiting activity (synthetic substrate S-2444); type: biochemical; settings: purified polypeptide, serially diluted
Description: The purified polypeptide of the present invention was dissolved in 100 μl of distilled water, and the solution was serially diluted with a 0.1% BSA/0.2M triethanolamine-HCl buffer (pH 7.8) for use in the activity measurement. Measurement of the trypsin-inhibiting activity in the thus prepared test sample was carried out in accordance with the Kassell's method (Kassell, B. et al., Methods in Enzymology, vol.19, pp.844-852, 1970) using a synthetic substrate S-2444 (Daiichi Pure Chemicals Co., Ltd.).
Bovine trypsin (Type XIII, Sigma Chemical Co.) was dissolved in 0.001M HCl to a final concentration of 13,600 BAEEU/ml and the solution was further diluted with 0.1% BSA/0.2M triethanolamine-HCl buffer (pH 7.8) to prepare 1.2 BAEEU/ml of trypsin solution. Separately from this, 2 mM solution of the synthetic substrate S-2444 was prepared by dissolving it in distilled water. Next, 100 μl of the test sample was mixed with 100 μl of the trypsin solution. After incubating statically at 37° C. for 10 minutes, 50 μl of the S-2444 solution was added to start the reaction. The reaction was carried out at 37° C. for 15 minutes and then stopped by adding 50 μl of 50% acetic acid solution to the reaction mixture. Thereafter, absorbance at a wavelength of 405 nm was measured using a spectrophotometer. In this instance, in order to eliminate absorbancy of various contents in the reaction mixture other than the reaction product, a blank solution was prepared by mixing 100 μl of the bovine trypsin solution with 50 μl of 50% acetic acid and then with 100 μl of each test sample and 50 μl of the S-2444 solution.

human trypsin = target: T2, human trypsin (Homo sapiens, UniProt P07477); assay: Human trypsin-inhibiting activity (synthetic substrate S-2444); type: biochemical; settings: purified polypeptide, various concentration levels
T2 construct: purchased Calbiochem
Description: The purified polypeptide of the present invention was dissolved in 100 μl of distilled water. Concentration of polypeptide in the thus prepared solution was determined based on its bovine trypsin-inhibiting activity measured in accordance with the above procedure (1) using UTI (Mochida Pharmaceutical Co., Ltd.; cf. H. Ohnishi et al., Nippon Yakurigaku Zasshi, vol.85, pp.1-6, 1985) as a standard. The polypeptide solution was then diluted to various concentration levels with 0.03% BSA/0.2M triethanolamine-HCl buffer (pH 7.8) for use in the activity measurement. Separately from this, human trypsin (Calbiochem) was dissolved in 1 mM HCl to a concentration of 1,000 SU/ml and the solution was further diluted with the 0.03% BSA/0.2M triethanolamine-HCl buffer (pH 7.8) to prepare a 1.25 SU/ml solution of human trypsin. Thereafter, human trypsin-inhibiting activity was measured in the same manner as described in the above procedure (1) using the aforementioned synthetic substrate S-2444. Separately from this, polypeptide AN68 (sequence described in Example 17(3)) was diluted to various concentration levels. Thereafter, human trypsin-inhibiting activity was measured in the same manner as described in the above procedure (1) and compared with the trypsin-inhibiting activity of the novel polypeptide of the present invention.

Molecule | bovine trypsin inhibition (Bovine trypsin) | human trypsin inhibition (human trypsin)
R11Q/Q19K/Y46D: formula 1 sequence with Gln for position 7 Arg, Lys for position 15 Gln, Asp for position 42 Tyr; SEQ. I.D. NO. 37 (protein) AACNLPIVQGPCRAFIKLWAFDAVKGKCVLFPYGGCQGNGNKFDSEKECREYCGVPGDGDEELLRFSN | can inhibit bovine trypsin in a concentration-dependent manner | can inhibit human trypsin in a concentration-dependent manner
R11E/Q19K/Y46E: formula 1 sequence with Glu for position 7 Arg, Lys for position 15 Gln, Glu for position 42 Tyr; SEQ. I.D. NO. 40 (protein) AACNLPIVEGPCRAFIKLWAFDAVKGKCVLFPYGGCQGNGNKFESEKECREYCGVPGDGDEELLRFSN | can inhibit bovine trypsin in a concentration-dependent manner | can inhibit human trypsin in a concentration-dependent manner
R11A/Q19K/Y46D: formula 1 sequence with Ala for position 7 Arg, Lys for position 15 Gln, Asp for position 42 Tyr; SEQ. I.D. NO. 43 (protein) AACNLPIVAGPCRAFIKLWAFDAVKGKCVLFPYGGCQGNGNKFDSEKECREYCGVPGDGDEELLRFSN | can inhibit bovine trypsin in a concentration-dependent manner | can inhibit human trypsin in a concentration-dependent manner
R11D/Q19K/Y46D: formula 1 sequence with Asp for position 7 Arg, Lys for position 15 Gln, Asp for position 42 Tyr; SEQ. I.D. NO. 38 (protein) AACNLPIVDGPCRAFIKLWAFDAVKGKCVLFPYGGCQGNGNKFDSEKECREYCGVPGDGDEELLRFSN | can inhibit bovine trypsin in a concentration-dependent manner | can inhibit human trypsin in a concentration-dependent manner
R11N/Q19K/Y46D: formula 1 sequence with Asn for position 7 Arg, Lys for position 15 Gln, Asp for position 42 Tyr; SEQ. I.D. NO. 41 (protein) AACNLPIVNGPCRAFIKLWAFDAVKGKCVLFPYGGCQGNGNKFDSEKECREYCGVPGDGDEELLRFSN | can inhibit bovine trypsin in a concentration-dependent manner | can inhibit human trypsin in a concentration-dependent manner
R11L/Q19K/Y46D: formula 1 sequence with Leu for position 7 Arg, Lys for position 15 Gln, Asp for position 42 Tyr; SEQ. I.D. NO. 39 (protein) AACNLPIVLGPCRAFIKLWAFDAVKGKCVLFPYGGCQGNGNKFDSEKECREYCGVPGDGDEELLRFSN | can inhibit bovine trypsin in a concentration-dependent manner | can inhibit human trypsin in a concentration-dependent manner
R11S/Q19K/Y46D: formula 1 sequence with Ser for position 7 Arg, Lys for position 15 Gln, Asp for position 42 Tyr; SEQ. I.D. NO. 42 (protein) AACNLPIVSGPCRAFIKLWAFDAVKGKCVLFPYGGCQGNGNKFDSEKECREYCGVPGDGDEELLRFSN | can inhibit bovine trypsin in a concentration-dependent manner | can inhibit human trypsin in a concentration-dependent manner
